Measurements as given in article PMC3951675 (Journal of molecular biology, 2013).

B1: regulatory domain of tyrosine hydroxylase lacking the first 64 residues (RDTyrH_(65-159)) (domain or fragment, rat, UniProt P04177 65-159, looked up)
chain: PGNPLEAVVFEERDGNAVLNLLFSLRGTKPSSLSRAVKVFETFEAKIHHLETRPAQRPLAGSPHLEYFVRFEVPSGDLAALLSSVRRVSDDVRSA
B2: isolated regulatory domain of tyrosine hydroxylase (RDTyrH, residues 1-159) (domain or fragment, rat, UniProt P04177 1-159, looked up)
chain: MPTPSAPSPQPKGFRRAVSEQDAKQAEAVTSPRFIGRRQSLIEDARKEREAAAAAAAAAVASSEPGNPLEAVVFEERDGNAVLNLLFSLRGTKPSSLSRAVKVFETFEAKIHHLETRPAQRPLAGSPHLEYFVRFEVPSGDLAALLSSVRRVSDDVRSA

Experiments:
SEC = target: the molecule itself; experiment: SEC
AUC = target: the molecule itself; experiment: AUC

| Protein | stoichiometry N (SEC) | stoichiometry N (AUC) |
| --- | --- | --- |
| B1 | 2 |  |
| B2 |  | 2 |
